US20210363245A1
Read-outs that look alike come from different tables or passages of the source.

How the values were obtained:
Experiment in all cases: cell-based or functional assay
CD19 [1] = target: CD19 (UniProt P15391)
CD20 (human) [2] = target: CD20 (human) (UniProt P11836)
CD19 [3] = target: CD19 (UniProt P15391); remark: listed apart in the source
CD20 (human) [4] = target: CD20 (human) (UniProt P11836); remark: listed apart in the source
CD19 [5] = target: CD19 (UniProt P15391); remark: listed apart in the source
CD20 (human) [6] = target: CD20 (human) (UniProt P11836); remark: listed apart in the source
CD19 [7] = target: CD19 (UniProt P15391); remark: listed apart in the source
CD20 (human) [8] = target: CD20 (human) (UniProt P11836); remark: listed apart in the source

Chain of UniProt P11836 (P11836 whole entry): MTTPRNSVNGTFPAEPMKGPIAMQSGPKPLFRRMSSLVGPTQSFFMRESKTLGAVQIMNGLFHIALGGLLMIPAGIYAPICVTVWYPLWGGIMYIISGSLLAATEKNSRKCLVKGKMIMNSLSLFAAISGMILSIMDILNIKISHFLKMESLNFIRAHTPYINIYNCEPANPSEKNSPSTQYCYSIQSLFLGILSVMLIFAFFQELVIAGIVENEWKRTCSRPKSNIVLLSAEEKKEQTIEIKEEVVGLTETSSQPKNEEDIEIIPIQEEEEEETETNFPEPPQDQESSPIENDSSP
Chain of UniProt P15391 (P15391 20-556 limits assumed): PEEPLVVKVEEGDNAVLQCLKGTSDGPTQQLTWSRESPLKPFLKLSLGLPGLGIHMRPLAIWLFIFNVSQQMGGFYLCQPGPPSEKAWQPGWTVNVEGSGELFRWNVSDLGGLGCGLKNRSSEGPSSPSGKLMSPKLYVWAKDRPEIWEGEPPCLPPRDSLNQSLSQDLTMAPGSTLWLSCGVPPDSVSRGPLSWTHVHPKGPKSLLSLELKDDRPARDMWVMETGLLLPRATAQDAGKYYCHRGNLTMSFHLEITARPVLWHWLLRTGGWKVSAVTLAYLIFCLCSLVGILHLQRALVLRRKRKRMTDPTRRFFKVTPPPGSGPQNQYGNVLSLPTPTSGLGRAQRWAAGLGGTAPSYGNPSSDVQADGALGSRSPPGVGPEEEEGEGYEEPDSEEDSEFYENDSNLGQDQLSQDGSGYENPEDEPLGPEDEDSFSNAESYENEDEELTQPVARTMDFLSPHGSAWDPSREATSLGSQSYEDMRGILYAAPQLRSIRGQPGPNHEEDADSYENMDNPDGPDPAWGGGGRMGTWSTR

C2B8-CD828Z gave an IFNγ release (ELISA), overnight co-culture with CD19-K562 (CD19 [1]) of 1050 pg/mL, an IL-2 release (ELISA), overnight co-culture with CD19-K562 (CD19 [1]) of less than 16 pg/mL and an IFNγ release (ELISA), overnight co-culture with CD20-K562 (CD20 (human) [2]) of 56700 pg/mL. For the same substance, the IFNγ release (ELISA), overnight co-culture with Nalm6 (CD20 (human) [2]) was 1290 pg/mL, the IFNγ release (ELISA), overnight co-culture with ST486 (CD20 (human) [2]) was 14300 pg/mL and the IFNγ release (ELISA), overnight co-culture with Toledo (CD20 (human) [2]) was 7770 pg/mL. The IL-2 release (ELISA), overnight co-culture with CD20-K562 (CD20 (human) [2]) was 4620 pg/mL, the IL-2 release (ELISA), overnight co-culture with Nalm6 (CD20 (human) [2]) was less than 16 pg/mL and the IL-2 release (ELISA), overnight co-culture with ST486 (CD20 (human) [2]) was 215 pg/mL. For the same substance, the IL-2 release (ELISA), overnight co-culture with Toledo (CD20 (human) [2]) was 104 pg/mL, the IFNγ release (ELISA), overnight co-culture with CD19-K562 (CD19 [3]) was 55 pg/mL and the IFNγ release (ELISA), overnight co-culture with CD20-K562 (CD20 (human) [4]) was 36500 pg/mL. For the same substance, the IFNγ release (ELISA), overnight co-culture with Nalm6 (CD20 (human) [4]) was 800 pg/mL, the IFNγ release (ELISA), overnight co-culture with ST486 (CD20 (human) [4]) was 9070 pg/mL and the IFNγ release (ELISA), overnight co-culture with Toledo (CD20 (human) [4]) was 6590 pg/mL.

Hu19-CD828Z was tested, and the IFNγ release (ELISA), overnight co-culture with CD19-K562 (CD19 [1]) was 21200 pg/mL, the IFNγ release (ELISA), overnight co-culture with Nalm6 (CD19 [1]) was 6940 pg/mL and the IFNγ release (ELISA), overnight co-culture with ST486 (CD19 [1]) was 745 pg/mL. For the same substance, the IFNγ release (ELISA), overnight co-culture with SU-DHL-4 (CD19 [1]) was 2280 pg/mL, the IFNγ release (ELISA), overnight co-culture with Toledo (CD19 [1]) was 4570 pg/mL and the IL-2 release (ELISA), overnight co-culture with CD19-K562 (CD19 [1]) was 616 pg/mL. For the same substance, the IL-2 release (ELISA), overnight co-culture with Nalm6 (CD19 [1]) was 111 pg/mL, the IL-2 release (ELISA), overnight co-culture with ST486 (CD19 [1]) was less than 16 pg/mL and the IL-2 release (ELISA), overnight co-culture with SU-DHL-4 (CD19 [1]) was less than 16 pg/mL. For the same substance, the IL-2 release (ELISA), overnight co-culture with Toledo (CD19 [1]) was 55 pg/mL, the IFNγ release (ELISA), overnight co-culture with CD20-K562 (CD20 (human) [2]) was 43 pg/mL and the IL-2 release (ELISA), overnight co-culture with CD20-K562 (CD20 (human) [2]) was less than 16 pg/mL. It also gave an IFNγ release (ELISA), overnight co-culture with CD19-K562 (CD19 [5]) of 13300 pg/mL, an IFNγ release (ELISA), overnight co-culture with Nalm6 (CD19 [5]) of 6520 pg/mL and an IFNγ release (ELISA), overnight co-culture with ST486 (CD19 [5]) of 1430 pg/mL. The IFNγ release (ELISA), overnight co-culture with CD20-K562 (CD20 (human) [6]) was 808 pg/mL, the IFNγ release (ELISA), overnight co-culture with CD19-K562 (CD19 [3]) was 31900 pg/mL and the IFNγ release (ELISA), overnight co-culture with Nalm6 (CD19 [3]) was 5700 pg/mL. It also gave an IFNγ release (ELISA), overnight co-culture with ST486 (CD19 [3]) of 3610 pg/mL, an IFNγ release (ELISA), overnight co-culture with SU-DHL-4 (CD19 [3]) of 5190 pg/mL and an IFNγ release (ELISA), overnight co-culture with Toledo (CD19 [3]) of 6470 pg/mL. The IFNγ release (ELISA), overnight co-culture with CD20-K562 (CD20 (human) [4]) was 21 pg/mL, the IFNγ release (ELISA), overnight co-culture with CD19-K562 (CD19 [7]) was 13900 pg/mL and the IFNγ release (ELISA), overnight co-culture with CD20-K562 (CD20 (human) [8]) was 118 pg/mL.

With Human IgG (antibody) the IFNγ release by Hu1928-2.1.2BB T cells with ST486 CD19-/- cells, human IgG at 0 ug/ml (CD20 (human) [2]) was 6490 pg/mL, the IFNγ release by Hu1928-2.1.2BB T cells with ST486 CD19-/- cells, human IgG at 6.2 ug/ml (CD20 (human) [2]) was 5840 pg/mL and the IFNγ release by Hu1928-2.1.2BB T cells with ST486 CD19-/- cells, human IgG at 12.5 ug/ml (CD20 (human) [2]) was 5590 pg/mL. For the same substance, the IFNγ release by Hu1928-2.1.2BB T cells with ST486 CD19-/- cells, human IgG at 25 ug/ml (CD20 (human) [2]) was 5470 pg/mL, the IFNγ release by Hu1928-2.1.2BB T cells with ST486 CD19-/- cells, human IgG at 50 ug/ml (CD20 (human) [2]) was 6510 pg/mL and the IFNγ release by Hu1928-2.1.2BB T cells with ST486 CD19-/- cells, human IgG at 100 ug/ml (CD20 (human) [2]) was 5920 pg/mL.
